Source: US20130203680A1, “FOLATE CONJUGATES FOR TREATING INFLAMMATION OF THE EYE” (ENDOCYTE, INC., priority 2010, published 2013)

Assays:
[1] = Plasma pharmacokinetics of EC0565 after a single intravenous or subcutaneous dose; conditions: for Tmax: sc
Method: The bioavailability of EC0565 after subcutaneous injection was measured. Female Lewis rats with rounded tip jugular vein catheters (Harlan) were fed regular rodent diet. The treated animals were given a single intravenous or subcutaneous dose of EC0565 at 2 μmmol/kg. […] For subcutaneous administration FIG. 18b, whole blood samples (300 μl) were collected from the animals at 1 min, 10 min, 30 min, 1 h, 2 h, 3 h, 4 h, 8 h, and 12 h post injection. The blood samples were placed into anti-coagulant tubes containing 1.7 mg/mL of K3-EDTA and 0.35 mg/mL of N-maleoyl-beta-alanine (0.35 mg/mL). Plasma samples were obtained by centrifugation for 3 min at ˜2,000 g and stored at −80° C. The amount of EC0565 and its released base drug (everolimus) were determined by HPLC using the EC0565 injection solution as the standard.

[2] = physchem; conditions: pH 7.4
[3] = rats; cited from earlier work
[4] = system: Proliferating Cell Nuclear Antigen (PCNA); assay: Western blot of PCNA in synchronized RAW264.7 cells; type: cell-based, murine; conditions: 1-1000 nM; EC0565 2 h treatment, 48-h chase; everolimus 48 h
Method: To study anti-proliferative effect of EC0565, FR-positive murine macrophage-like RAW264.7 cells (serum deprived for 36 h for synchonization) were given a 2 h treatment of EC0565 (1, 10, 100, and 1000 nM) without or with 1000× excess of EC17 (as a folate competitor) followed by a 48-h chase in drug-free medium. For comparison, the cells were also treated for 48 h with everolimus (1, 10, 100, and 1000 nM). […] Western blot analysis was carried out on whole cell lysates using a monoclonal antibody specific for PCNA (PC10, Cell Signaling, Danvers, Mass.). After incubation with a peroxidase-conjugated secondary antibody, the signals were visualized using SuperSignal West Pico Chemiluminescent Substrate system (ThermoScientific, Waltham, Mass.) following the manufacturer's instructions. The images were acquired using a G:BOX Chemi HR 16 gel imaging system (Syngene, Frederick, Md.).

[5] = cited from earlier work
[6] = female, Lewis, rat, in vivo, 2 μmmol/kg

CO[C@H]1C[C@@H]2CC[C@@H](C)[C@@](O)(O2)C(=O)C(=O)N2CCCC[C@H]2C(=O)O[C@H]([C@H](C)C[C@@H]2CC[C@@H](OCCOC(=O)OCCSSC[C@H](NC(=O)[C@H](CCC(=O)NC[C@H](O)[C@@H](O)[C@H](O)[C@H](O)CO)NC(=O)[C@H](CCC(=O)O)NC(=O)[C@H](CCC(=O)NC[C@H](O)[C@@H](O)[C@H](O)[C@H](O)CO)NC(=O)[C@H](CCC(=O)O)NC(=O)[C@H](CCC(=O)NC[C@H](O)[C@@H](O)[C@H](O)[C@H](O)CO)NC(=O)CC[C@H](NC(=O)c3ccc(NCc4cnc5nc(N)[nH]c(=O)c5n4)cc3)C(=O)O)C(=O)O)[C@H](OC)C2)CC(=O)[C@H](C)/C=C(\C)[C@@H](O)[C@@H](OC)C(=O)[C@H](C)C[C@H](C)/C=C/C=C/C=C/1C [EC0565]
bioavailability [1, 6]: ~128% | Tmax [1, 6]: ~1 h | free drug (everolimus) exposure/release in plasma, based on AUC ([1]; single intravenous dose of EC0565 at 2 μmmol/kg): approximately 18% | free drug (everolimus) exposure/release in plasma, based on AUC ([1]; single subcutaneous dose of EC0565 at 2 μmmol/kg): ~17% | solubility [2]: > 1000 µM

CO[C@H]1C[C@@H]2CC[C@@H](C)[C@@](O)(O2)C(=O)C(=O)N2CCCC[C@H]2C(=O)O[C@H]([C@H](C)C[C@@H]2CC[C@@H](OCCO)[C@H](OC)C2)CC(=O)[C@H](C)/C=C(\C)[C@@H](O)[C@@H](OC)C(=O)[C@H](C)C[C@H](C)/C=C/C=C/C=C/1C [everolimus]
Tmax ([1]; female, Lewis, rat, in vivo): ~1 h | oral bioavailability [3]: ~12% | effect on PCNA activities [4]: inhibited PCNA activities | water solubility [5]: 1 to 10 µM
